The values below come from patent US8758746B2, “Fertilization modulation compounds and process for implementing them” (Universite Joseph Fourier, priority 2009, dated 2014).

The subject of one assay is spermatozoa. Particulars: inhibitors of PLA2; Roldan and Fragio 1993; Llanos et al 1993; cited from earlier work.
Assay [1] relates to sperm and oocytes. The assay is described as follows: In vitro fertilization (IVF), two-cell embryos scored at 24 h. It is filed as cell-based, mouse. The settings on record: for comparison with mGX sPLA2 effect (FIG. 7): around 10 μM, 45 min during capacitation or 4 h after gamete mixing.
Assay [2] relates to Sperm cells from caudae epididymes. The assay is described as follows: Acrosome reaction assay (coomassie blue staining). The format is cell-based, mouse. The settings on record: for ability to trigger acrosome reaction (AR) / AR induced above basal spontaneous level of AR: uncapacitated sperm; for ability to trigger acrosome reaction (AR): incubated 10 min with sPLA2 (200 nM in FIG. 2A; pro-mGX at 200 nM). Here is the method:
Sperm cells from caudae epididymes were allowed to swim in M2 medium for 10 min. Then, sperms were incubated, if necessary, with different sPLA2 in M16 medium at 37° C. for 10 min. Cells were transferred in PBS solution and then fixed with 4% PFA solution for 2 min. Sperm was washed with 100 mM ammonium acetate for 2 min and wet-mounted on slides and allowed to air dry. Slides were then rinsed with water and stained with coomassie blue (0.22%) for 2 min and finally rinsed with water. Slides were counted immediately and 150 sperm cells were scored at least.
The rate of AR increase from 20%, corresponding to spontaneous acrosome-reacted sperm, to 60% in the presence of 200 nM active sPLA2. In order to better characterize the potency of such compounds to trigger AR, dose-response curves for mGX and mGIIA were realized (FIG. 2B).
Sperm were capacitated with 2% BSA in M16 medium, in a 5% CO2 incubator at 37° C. At 45 and 80 min, 200 nM of mGX was introduced in the capacitation medium and sperm were fixed 10 min later. The rates of acrosome-reacted sperm observed in the presence of sPLA2 were compared with control sperm capacitated during 55 or 90 min in the capacitation medium (FIG. 2C). […] Moreover, the difference between spontaneous AR and total rate, corresponding to the sPLA2-induced fraction, was around stable throughout the capacitation progress: ≈39%, ≈36% and ≈35% at 10, 55 and 90 min respectively. It is important to notice that a small fraction of sperm of around 20% was reluctant to spontaneous AR or sPLA2-induced AR even in the presence of a high level of spontaneous AR.

The test system of a further assay is Sperm cells. The assay is described as follows: Electron microscopy of sPLA2-induced acrosome reaction. It is filed as cell-based, mouse. Particulars: uncapacitated sperm. Here is the method: Sperm cells were fixed with 2.5% glutaraldehyde in 0.1 M cacodylate buffer pH 7.4 during 2 hours at room temperature. Cells were then washed with buffer and post fixed with 1% Osmium tetroxyde in the same buffer during 1 hour at 4° C. After extensive washing with water cells were then stained with 0.5% uranile acetate pH 4 overnight at 4° C. Cells were then dehydrated through graded alcohol (30%-60%-90%-100%-100%-100%) and infiltrate with a mix of 1/1 epon/alcohol 100% during 1 hour before several bath of fresh epon (Flukka) during 3 hours. Finally, cells were centrifugated and immersed in fresh Epon and polymerised during 3 days at 60° C. Ultrathin sections of the cell pellet were cut with an ultramicrotome (Leica). Sections were post-stained with 4% uranile acetate and 1% lead citrate before being observed in an electron microscope at 80 kV (JEOL 1200EX).
It was important to check with electron microscopy (EM) that sPLA2 induced a morphologically normal acrosome reaction. The morphological criteria by which an acrosome reaction is evaluated to be normal are relatively limited: first, the outer acrosomal membrane should present vesiculation, second, the plasma membrane should fuse with the outer acrosomal membrane and present a characteristic double hair pin shape at the base of the acrosome (Green, D. P. (1978) The induction of the acrosome reaction in guinea-pig sperm by the divalent metal cation ionophore A23187. J. Cell Sci., 32:137-51.:137-151.)
For these experiments, uncapacitated sperm was used in order to reduce the contribution of spontaneous AR and 200 nM sPLA2 to get maximum sPLA2-induced AR. Sperm were incubated 10 min with mGX sPLA2 or the calcium ionophore A23187 and then fixed. In the presence of A23187, all acrosome-reacted sperm presented complete AR, with the 3 morphological criteria, as described above.

Assay [3] has as its system sperm and oocytes. The assay is described as follows: In vitro fertilization (IVF), two-cell embryos scored at 24 h. The settings on record: for rate of IVF (effect in words): OF1 sperm treated 10 min with 20 or 200 nM mGX. It is filed as cell-based, mouse. Here is the method:
Sperm cells, obtained by manual trituration of caudae epididymes from OF1 male mice, were allowed to swim in M2 medium for 10 min. Then, the sperm cells were transferred in M16 medium containing 2% BSA (Bovine Serum Albumen) and incubated 35 min for capacitation. After centrifugation, cells were then transferred in M16 medium and if necessary, incubated with 20 or 200 nM of mGX sPLA2 for 10 min. Sperm cells were centrifugated (1200 rpm, 5 min) and re-suspended in M16 medium to remove […] sPLA2 before to be used for in vitro fertilization experiment. All experiments were carried out at 37° C. Eggs were collected from mature OF1 females (6-weeks old) synchronized with 7.5 units of PMSG (pregnant mare serum gonadotrophin) and 7.5 units of hCG (human chorionic gonadotrophin) before collection.
IVF using standard protocols were carried out. Eggs were incubated with approximately 10^4 sperm cells, and unbound sperms were washed away after 4 hours of incubation. Twenty four hours after fertilization, the two-cell embryos stages (FIG. 4) were scored as an indication of successful fertilization (FIGS. 5 and 6).
In vitro fertilizations (IVF) were realized with sperm capacitated 35 min in 2% BSA and then treated 10 min with 20 or 200 nM mGX. Before treated sperm were introduced within oocytes, sperm were washed and centrifuged to remove sPLA2 in order to avoid artefact effects of sPLA2 on sperm-oocyte fusion (Riffo and Parraga, 1997). sPLA2 contaminant in the IVF medium was below 1 nM for sperm treated at 200 nM.

“And” between values parts separate entries of the source, which are not always exact repeats. Equal values may be shown once. “Also recorded” adds a separate entry of the source.

With `O=C(CBr)c1ccc(Br)cc1` [4-bromophenacyl bromide], in the assay with spermatozoa, the “effect on calcium-ionophore induced acrosome reaction” value is on record as “block”.
For Lysophosphocholine [LPC], in the assay with sperm and oocytes [1] (LPC 1 μM during capacitation with LY329722 2 μM (FIG. 8)), the “rescue of fertilization decreased by LY329722” value is given as “rescued”. Moreover, the “comparison with mGX sPLA2 effect (FIG. 7)” value with sperm and oocytes [1] was “mimic mGX sPLA2”.
Turning to `CCN(CC)CCCC(C)Nc1c2ccc(Cl)cc2nc2ccc(OC)cc12` (centres unmarked) [mepacrine], in the assay on spermatozoa, the “effect on calcium-ionophore induced acrosome reaction” value is listed as “block”.
With `CCCCC/C=C\C/C=C\C/C=C\C/C=C\CCCC(=O)O` [arachidonic acid], the “comparison with mGX sPLA2 effect (FIG. 7)” value with sperm and oocytes [1] was “mimic mGX sPLA2”.

B1: pro-mGX: the inactive pro-enzyme (precursor molecule) of mGX (protein, UniProt Q9QXX3 18-151, looked up)
pro-form: EATRRSHVYKRGLLELAGTLDCVGPRSPMAYMNYGCYCGLGGHGEPRDAIDWCCYHHDCCYSRAQDAGCSPKLDRYPWKCMDHHILCGPAENKCQELLCRCDEELAYCLAGTEYHLKYLFFPSILCEKDSPKCN
modifications: pro-form
Regarding B1, the “ability to trigger acrosome reaction (AR)” value (“ability … (AR)” below) is “unable to trigger AR” in assay [2] and “unable to trigger sperm acrosome reaction” in assay [2] (listed as Pro-mGX).

B2: mGIIA: Recombinant mouse group IIA secreted phospholipase A2 (protein, UniProt P31482 22-146, looked up)
Phospholipase A2, membrane …: NIAQFGEMIRLKTGKRAELSYAFYGCHCGLGGKGSPKDATDRCCVTHDCCYKSLEKSGCGTKLLKYKYSHQGGQITCSANQNSCQKRLCQCDKAAAECFARNKKTYSLKYQFYPNMFCKGKKPKC
For the molecule B2, in assay [2] (2 nM sPLA2), the “AR induced above basal spontaneous level of AR” value is reported as “around 20%”. For the same molecule, the “ability … (AR)” value in assay [2] is “trigger acrosome reaction; also recorded: able to trigger AR”.

B3: mGX: Recombinant mouse group X secreted phospholipase A2 (protein, UniProt Q9QXX3 29-151, looked up)
Group 10 secretory …: GLLELAGTLDCVGPRSPMAYMNYGCYCGLGGHGEPRDAIDWCCYHHDCCYSRAQDAGCSPKLDRYPWKCMDHHILCGPAENKCQELLCRCDEELAYCLAGTEYHLKYLFFPSILCEKDSPKCN
Turning to B3, the “increase of fertilization rate versus non-treated sperm” value in the assay with sperm and oocytes [1] (C57Bl/6 strain, mGX treated sperm (200 nM)) is recorded as 142%. The “control IVF with sPLA2 present during sperm-oocyte incubation” value with sperm and oocytes [1] (sperm and oocytes incubated with 1 nM mGX) is “no difference was noticed”. Besides, in the assay with sperm and oocytes [1] (sperm from C57Bl/6 males treated with 200 nM mGX, control 8.2%), the “rate of two-cells embryos stage at 24 hours” value is listed as 19.9%. Further, the “ability of mGX to trigger AR with 2 mM Ni2+” value in assay [2] (200 nM mGX, 2 mM Ni2+ in the bath, n=3) is “block”. For the same molecule, the “sPLA2-induced fraction (difference between total rate and spontaneous AR)” value is recorded as “≈ 39%” in assay [2] (200 nM mGX, 10 min (non-capacitated sperm)); “≈ 36%” in assay [2] (200 nM mGX, 55 min of capacitation in 2% BSA); “≈ 35%” in assay [2] (200 nM mGX, 90 min of capacitation in 2% BSA). Moreover, the “ability of mGX to trigger AR without external calcium” value in assay [2] (200 nM mGX, 10 min, external calcium removed, n=3) is “block”. For the same molecule, the “very low dose from which AR is triggered” value in assay [2] (capacitated and uncapacitated sperm, in the absence of oocytes) is 0.2 nM. For the same molecule, in assay [2] (capacitated sperm (2% BSA, 55 or 90 min), 200 nM mGX for the last 10 min), the “total rate of acrosome-reacted sperm versus control” value is recorded as “able to trigger acrosome reaction; also recorded: increased at all capacitation durations”. Also, the “AR induced above basal spontaneous level of AR” value in assay [2] (0.2 nM sPLA2) was 15%; in assay [2] (0.2 nM sPLA2, listed as mGX sPLA2) it was “around 20%”. In assay [2], the “ability … (AR)” value is “trigger acrosome reaction; also recorded: able to trigger AR”. For the same molecule, in the assay with Sperm cells (200 nM, 10 min), the “kinetic of induced AR compared with A23187” value is listed as “slower”. For the same molecule, the “morphology of induced acrosome reaction (electron microscopy)” value with Sperm cells (incubated 10 min (200 nM sPLA2)) was “normal morphological feature”. Besides, the “rate of IVF (effect in words)” value in the assay with sperm and oocytes [3] is reported as “promotes fertilization”; in the assay on sperm and oocytes [3] (listed as mGX sPLA2) it was “increased”. In addition, the “fertilization outcome (2 cell embryo at 24 h post fertilization)” value in the assay on sperm and oocytes [3] (sPLA2 at 200 nM (FIG. 7)) was “improve fertilization outcome”. Moreover, the “rate of two cells embryos stage at 24 hours (IVF rate)” value in the assay on sperm and oocytes [3] (sperm from OF1 males treated 10 min with 200 nM mGX, control 45% (44.0±8.9%)) was 65% and 65.4 ± 5.6%.

B4: mGV: Recombinant mouse group V secreted phospholipase A2 (protein, UniProt P97391 21-137, looked up)
Phospholipase A2 group V: GLLELKSMIEKVTGKNAFKNYGFYGCYCGWGGRGTPKDGTDWCCQMHDRCYGQLEEKDCAIRTQSYDYRYTNGLVICEHDSFCPMRLCACDRKLVYCLRRNLWTYNPLYQYYPNFLC
Turning to B4, the “ability … (AR)” value in assay [2] is reported as “trigger acrosome reaction”.
